In patent US20230391890A1 (CORNELL UNIVERSITY, published 2023):
Changes are numbered by the printed parent chain.

B1: 12A12 (cAb5776) (antibody, mouse IgG1, kappa, V domains shown)
VH: EVQLQQSGPELVKPGVSMKISCKASGYSFTAYTMNWVKQSHGENLEWIGLINPYNGGTTYNQKFKGKATLTVDKSSSTAYMELLSLTSEDSAVYYCASYDYGYAMDYWGQGTSVTVSS
VL: DVLMTQTPLSLPVSLGDQASISCRSSQSIVHRSGNTYLEWYLQKPGQSPKLLIYKVSNRFSGVPDRFSGSGSGTDFTLKISRVEAEDLGVYYCFQGSHVPWTFGGGTKLEIKR
notes: Mouse monoclonal antibody from a hybridoma (supernatant, later purified)
B2: 12D02 (cAb5775) (antibody, mouse IgG1, kappa, V domains shown)
VH: B1 VH with V16A
VL: B1 VL with S33N
notes: as for B1
B3: 12D08 (cAb5777) (antibody, mouse IgG2a, kappa, V domains shown)
VH: EVQLQQSGAELVKPGASVKLSCTASGFNIKDTYMHWVKQRPEQGLIWIGNIDPANGHTKYAPKFQGKATITADTSSNTAYLQLSSLTSEDTAVYYCARSNDYDVDFDYWGQGTTLTVSS
VL: DIVMSQSPSSLAVSAGEKVTMSCKSSQSLLNSRTRKNYLAWYQQKPGQSPKLLIYWASTRESGVPDRFTGSGSGTDFSLTISSVQAEDLAVYYCKQSYNLYTFGGGTKLEIKR
notes: as for B1
B4: 13G04 (cAb5778) (antibody, mouse IgG1, kappa, V domains shown)
VH: EVHLQQSGPELVKPGASMKISCKASGYSFTAYTMNWVKQSHGKNLEWIGLINPYNGGTTYNQKFKGKATLTVDKSSSTAYMELLSLTSEDSAVYYCASYYGGRGWYFDVWGAGTSVTVSS
VL: DIVLTQSPASLAVSLGQRATISCRASKSVSTSGYSYVHWYQQKPGQPPKLLIYLASNLESGVPARFSGSGSGTDFTLNIHPVEEEDAATYYCQNSRELPYTFGGGTKLEMKR
notes: as for B1
B5: 07F11C02 (cAb4853) (antibody, mouse IgG2a, kappa, V domains shown)
VH: DVQLVESGGGLVQPGGSRKLSCAASGFAFSSFGMHWVRQAPERGLEWVAYISSASNTIYYADTVKGRFTISRDNPKSTLFLQMTSLRSEDTAIYYCAKRDWDLYAMDYWGQGTSVTVSS
VL: DIVMTQSQKFLSTSVGDRVTITCKASQNVGTAVAWYQQKPGQSPELLIYSASNRHTGVPARFTGSGSGTDFTLTITNMQSEDLADYFCQQYSSSPTFGGGTKLESKR

The binders below were run against T1, purified KIAA1199/CEMIP protein (aa 1-649) (human, UniProt Q8WUJ3 31-649) (assay: ELISA on recombinant CEMIP, purified antibody).
T1 construct: also called recombinant KIAA1199/CEMIP protein
T1 sequence: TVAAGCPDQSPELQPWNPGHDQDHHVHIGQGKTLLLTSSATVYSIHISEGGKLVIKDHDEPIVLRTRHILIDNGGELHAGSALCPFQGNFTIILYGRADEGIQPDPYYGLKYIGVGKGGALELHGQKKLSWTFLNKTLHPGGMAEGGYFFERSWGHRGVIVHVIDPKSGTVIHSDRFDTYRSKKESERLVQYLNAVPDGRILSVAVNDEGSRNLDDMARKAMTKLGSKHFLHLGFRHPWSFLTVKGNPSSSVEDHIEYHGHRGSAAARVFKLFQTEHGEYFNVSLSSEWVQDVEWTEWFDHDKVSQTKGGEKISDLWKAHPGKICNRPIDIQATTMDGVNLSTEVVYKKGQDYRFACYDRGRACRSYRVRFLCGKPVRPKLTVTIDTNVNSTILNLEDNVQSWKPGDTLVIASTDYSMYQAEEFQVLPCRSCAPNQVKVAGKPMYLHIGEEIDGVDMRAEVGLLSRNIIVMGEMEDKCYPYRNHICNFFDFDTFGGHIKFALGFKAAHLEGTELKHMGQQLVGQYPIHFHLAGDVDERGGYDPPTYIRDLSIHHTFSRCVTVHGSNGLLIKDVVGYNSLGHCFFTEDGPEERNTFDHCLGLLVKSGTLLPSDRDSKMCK

| Binder | binding result |
| --- | --- |
| B1 | binds |
| B2 | binds |
| B3 | binds |
| B4 | binds |

Each binder was assayed against T2, native CEMIP/KIAA1199 expressed on the surface of human cancer cells (human, UniProt Q8WUJ3 31-1361) (assay: flow cytometry on MKN45 cells).
T2 construct: Endogenous CEMIP of MKN45 gastric and N2LA lung cancer cells in flow cytometry; The same entry is used for CEMIP on exosomes of brain tropic MDA-MB231 cells in the brain slice assay; also called native cell surface CEMIP/KIAA1199; CEMIP on MKN45 and N2LA cells
T2 sequence: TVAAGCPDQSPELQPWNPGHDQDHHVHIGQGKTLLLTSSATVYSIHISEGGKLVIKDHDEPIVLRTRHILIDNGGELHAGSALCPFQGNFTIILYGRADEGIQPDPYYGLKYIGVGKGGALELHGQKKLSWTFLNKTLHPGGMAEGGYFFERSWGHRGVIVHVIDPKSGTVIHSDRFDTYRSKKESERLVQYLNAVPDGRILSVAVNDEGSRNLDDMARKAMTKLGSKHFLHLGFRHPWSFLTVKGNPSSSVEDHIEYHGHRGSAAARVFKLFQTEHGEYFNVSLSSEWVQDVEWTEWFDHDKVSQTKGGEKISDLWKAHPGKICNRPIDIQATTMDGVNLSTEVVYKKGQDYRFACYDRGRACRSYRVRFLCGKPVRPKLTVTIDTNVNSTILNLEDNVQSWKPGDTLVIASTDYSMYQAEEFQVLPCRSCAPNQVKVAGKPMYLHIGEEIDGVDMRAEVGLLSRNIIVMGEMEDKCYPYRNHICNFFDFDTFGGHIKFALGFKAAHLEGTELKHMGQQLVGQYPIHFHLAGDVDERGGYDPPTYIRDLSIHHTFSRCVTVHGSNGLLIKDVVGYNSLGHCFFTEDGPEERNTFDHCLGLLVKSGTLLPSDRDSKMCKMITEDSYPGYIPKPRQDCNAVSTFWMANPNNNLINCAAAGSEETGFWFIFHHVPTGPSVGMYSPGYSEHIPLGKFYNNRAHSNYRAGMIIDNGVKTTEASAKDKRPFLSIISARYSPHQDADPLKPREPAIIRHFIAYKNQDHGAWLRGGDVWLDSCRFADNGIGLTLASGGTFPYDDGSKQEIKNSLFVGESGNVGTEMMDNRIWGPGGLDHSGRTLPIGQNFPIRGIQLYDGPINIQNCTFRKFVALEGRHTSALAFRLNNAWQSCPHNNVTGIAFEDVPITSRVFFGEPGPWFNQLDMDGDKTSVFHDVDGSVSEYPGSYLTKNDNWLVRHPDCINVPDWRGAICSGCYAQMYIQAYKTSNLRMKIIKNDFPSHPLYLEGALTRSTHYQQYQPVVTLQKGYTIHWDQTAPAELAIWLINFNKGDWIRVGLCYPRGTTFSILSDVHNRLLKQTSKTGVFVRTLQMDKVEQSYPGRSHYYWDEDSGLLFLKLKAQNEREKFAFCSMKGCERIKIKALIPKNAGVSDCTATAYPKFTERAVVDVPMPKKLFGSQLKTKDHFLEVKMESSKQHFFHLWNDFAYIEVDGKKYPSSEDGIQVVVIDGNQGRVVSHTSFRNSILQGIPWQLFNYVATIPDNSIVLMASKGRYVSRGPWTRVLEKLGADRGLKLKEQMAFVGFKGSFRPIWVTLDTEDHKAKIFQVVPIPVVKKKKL

| Binder | binding result |
| --- | --- |
| B1 | binds |
| B2 | binds |
| B3 | binds |
| B4 | binds |

Each binder was assayed against T2, native CEMIP/KIAA1199 expressed on the … (assay: cell-based or functional assay).

| Binder | GFP+ parental MDA-MB231 cells on the slice, 3D organotypic brain slice assay, CEMIP-positive exosomes pre-incubated with antibody [fold decrease] |
| --- | --- |
| B5 | 6 |
